{"source": "patent US20260022353", "target": "piggyBac transposase, 5 hyperactive mutations (Hyper) I30V,G165S,M226F,M282V,N538K (Trichoplusia ni?) (UniProt Q27026)", "sequence (Q27026 entry or part of it I30V G165S M226F M282V N538K)": "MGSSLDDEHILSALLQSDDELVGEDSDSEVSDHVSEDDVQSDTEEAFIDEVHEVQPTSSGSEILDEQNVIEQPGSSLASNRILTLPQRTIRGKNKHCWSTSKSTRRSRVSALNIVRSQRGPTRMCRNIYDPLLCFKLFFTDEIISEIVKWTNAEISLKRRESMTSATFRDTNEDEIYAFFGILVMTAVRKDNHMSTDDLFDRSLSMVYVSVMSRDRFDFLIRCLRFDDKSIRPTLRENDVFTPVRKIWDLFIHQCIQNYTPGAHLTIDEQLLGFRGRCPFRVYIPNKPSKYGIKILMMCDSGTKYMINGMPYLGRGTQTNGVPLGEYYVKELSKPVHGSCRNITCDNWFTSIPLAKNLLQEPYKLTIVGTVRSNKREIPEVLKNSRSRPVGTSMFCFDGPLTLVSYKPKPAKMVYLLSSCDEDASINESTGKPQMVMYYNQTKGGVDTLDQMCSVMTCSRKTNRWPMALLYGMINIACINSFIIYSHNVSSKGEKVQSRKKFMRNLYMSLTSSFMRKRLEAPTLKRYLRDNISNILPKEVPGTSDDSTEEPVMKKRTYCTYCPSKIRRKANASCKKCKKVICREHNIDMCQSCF", "test": "cell_activity", "details": "~50% enhanced integration in K562 (p260); ~50% enhanced excision in 293T (p263)"}
{"substance": "piggyBac transposon with wild type LE and RE ITRs (dual reporter)", "values": [{"measurement": "activity (fold vs 4-mutation SPB)", "result": 1.5}]}
